According to article PMC8054679:

Legend:
Hsp70 (Homo sapiens) = conditions: cited from earlier work
SmBiT-CHIP-FLAG = experiment: split reporter
Chain of SmBiT-CHIP-FLAG (Q9UNE7 whole entry): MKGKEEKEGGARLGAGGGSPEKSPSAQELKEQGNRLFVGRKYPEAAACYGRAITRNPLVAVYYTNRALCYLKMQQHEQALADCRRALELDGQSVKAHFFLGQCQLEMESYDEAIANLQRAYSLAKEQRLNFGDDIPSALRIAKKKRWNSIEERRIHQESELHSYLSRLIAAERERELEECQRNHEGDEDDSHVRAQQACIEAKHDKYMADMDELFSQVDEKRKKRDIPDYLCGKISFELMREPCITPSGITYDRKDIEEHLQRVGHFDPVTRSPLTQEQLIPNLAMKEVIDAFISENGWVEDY

Chain of CHIP TPR (Q9UNE7 21-154): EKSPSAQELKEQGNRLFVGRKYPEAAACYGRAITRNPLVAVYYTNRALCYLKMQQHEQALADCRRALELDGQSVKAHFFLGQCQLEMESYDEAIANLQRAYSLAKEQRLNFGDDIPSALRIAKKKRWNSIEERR

## CHIP TPR (from UniProt Q9UNE7)
Hsp70 (Homo sapiens)
  Kd: 600 nM

## R9-LWWPD (peptide; other documents disagree on this pair)
SmBiT-CHIP-FLAG
  IC50: 2600 nM
  percent reduction of luminescence at 10 μM: 40%
